From patent US20260055148A1 (USTAV ORGANICKE CHEMIE A BIOCHEMIE AV CR V V I, published 2026) come the findings set out here.

Substitutions are numbered along the chain they refer to. Names may count otherwise.

Assay [1] concerns the target C3b (human complement C3b) (human, UniProt P01024 23-667; P01024 749-1663). As to the kind of experiment: cell-based or functional assay.
In assay [2] the target is T1, His-C3d-Avi, biotinylated (human complement C3d with N-terminal His-tag and C-terminal Avi-tag) (human, UniProt P01024 996-1303, site-specific biotinylation of the C-terminal Avi-tag).
T1 construct: domain: C3d; SPR ligand for the ISG65 mutants; not shown: N-terminal His-tag (pET15b); C-terminal Avi-tag
Description: SPR BIAcore T200, biotinylated C3d-Avi immobilised, ISG65 as analyte; kon1. For orientation: SPR reads the build-up and loss of mass on a sensor chip optically.

Assay [3] addresses T1, His-C3d-Avi, biotinylated (human …). As to the kind of experiment: SPR BIAcore T200, biotinylated C3d-Avi immobilised, ISG65 as analyte.
For assay [4] the target is unchanged. As to the kind of experiment: SPR BIAcore T200, biotinylated C3d-Avi immobilised, ISG65 as analyte; koff1.
Assay [5] shares this target. As to the kind of experiment: SPR, biotinylated C3d-Avi immobilised, ISG65 Y293A as analyte.

T1 sequence (P01024 996-1303 limits assumed): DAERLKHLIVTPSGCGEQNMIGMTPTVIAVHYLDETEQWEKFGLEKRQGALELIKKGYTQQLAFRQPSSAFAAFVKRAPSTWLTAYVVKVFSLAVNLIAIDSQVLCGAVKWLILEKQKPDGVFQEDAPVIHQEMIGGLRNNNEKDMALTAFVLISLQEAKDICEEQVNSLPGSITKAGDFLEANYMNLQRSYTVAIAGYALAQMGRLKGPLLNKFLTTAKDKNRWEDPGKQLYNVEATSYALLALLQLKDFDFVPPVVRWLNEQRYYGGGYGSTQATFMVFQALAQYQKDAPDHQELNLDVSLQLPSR
Sequence of C3b (human complement C3b) (P01024 23-667 limits assumed, chain 1 of 2): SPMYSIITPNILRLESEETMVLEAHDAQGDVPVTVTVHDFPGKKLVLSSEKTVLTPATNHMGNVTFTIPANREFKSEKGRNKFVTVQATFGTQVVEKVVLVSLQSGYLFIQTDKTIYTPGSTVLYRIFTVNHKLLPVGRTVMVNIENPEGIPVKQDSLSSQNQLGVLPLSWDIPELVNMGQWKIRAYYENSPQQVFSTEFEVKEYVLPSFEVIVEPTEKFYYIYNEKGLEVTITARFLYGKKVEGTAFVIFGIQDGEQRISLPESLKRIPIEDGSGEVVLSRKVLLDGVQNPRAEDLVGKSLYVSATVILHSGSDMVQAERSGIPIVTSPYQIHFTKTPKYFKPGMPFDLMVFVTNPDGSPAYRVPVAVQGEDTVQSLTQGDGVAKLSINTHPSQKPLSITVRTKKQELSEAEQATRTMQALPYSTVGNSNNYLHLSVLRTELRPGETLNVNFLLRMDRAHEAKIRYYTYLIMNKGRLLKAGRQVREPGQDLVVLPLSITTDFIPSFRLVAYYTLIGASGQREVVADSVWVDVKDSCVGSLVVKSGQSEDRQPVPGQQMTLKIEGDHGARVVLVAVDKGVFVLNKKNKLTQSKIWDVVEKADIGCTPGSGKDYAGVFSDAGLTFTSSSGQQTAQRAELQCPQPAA
Sequence of C3b (human complement C3b) (P01024 749-1663 limits assumed, chain 2 of 2): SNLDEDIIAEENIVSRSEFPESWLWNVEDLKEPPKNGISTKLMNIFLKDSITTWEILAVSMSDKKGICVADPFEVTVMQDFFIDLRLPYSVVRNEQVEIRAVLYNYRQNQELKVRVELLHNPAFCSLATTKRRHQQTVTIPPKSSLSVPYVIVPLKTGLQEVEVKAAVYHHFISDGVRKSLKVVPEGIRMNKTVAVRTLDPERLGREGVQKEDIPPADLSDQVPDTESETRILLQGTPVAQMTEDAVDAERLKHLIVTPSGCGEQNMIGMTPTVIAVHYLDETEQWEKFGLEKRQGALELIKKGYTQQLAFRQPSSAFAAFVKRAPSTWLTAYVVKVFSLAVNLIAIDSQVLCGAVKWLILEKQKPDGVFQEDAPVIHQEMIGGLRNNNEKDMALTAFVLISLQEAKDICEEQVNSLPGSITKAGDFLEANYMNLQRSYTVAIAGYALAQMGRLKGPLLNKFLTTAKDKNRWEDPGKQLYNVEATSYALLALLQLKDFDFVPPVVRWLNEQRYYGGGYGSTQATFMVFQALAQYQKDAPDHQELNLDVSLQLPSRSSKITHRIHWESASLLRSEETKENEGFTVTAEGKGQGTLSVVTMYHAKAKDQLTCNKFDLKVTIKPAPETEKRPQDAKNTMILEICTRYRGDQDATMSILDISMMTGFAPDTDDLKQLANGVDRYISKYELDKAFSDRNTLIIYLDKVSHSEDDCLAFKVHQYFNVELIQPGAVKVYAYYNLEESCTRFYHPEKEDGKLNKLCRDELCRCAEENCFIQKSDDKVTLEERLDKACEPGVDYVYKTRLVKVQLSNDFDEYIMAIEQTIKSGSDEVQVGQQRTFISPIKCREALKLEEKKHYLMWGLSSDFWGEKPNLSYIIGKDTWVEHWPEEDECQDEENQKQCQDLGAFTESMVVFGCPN

B1: His-ISG65 18-363 (extracellular domain of ISG65 of Trypanosoma brucei gambiense, Tbg.972.2.1600, with N-terminal hexa-histidine tag) (receptor)
chain: MGSSHHHHHHSSGLVPRGSHMLLVIGSEDNRVPGDKKLTKEGAAALCKMKHLADKVAKERSQELKDRTQNFAGYIEFELYRIDYWLEKLNGPKGRKDGYAKLSDSDIEKVKEIFNKAKDGITKQLPEAKKAGEEAGKLHTEVKKAAENARGQDLDDDTAKSTGLYRVLNWYCITKEERHNATPNCDGIQFRKHYLSVNRSAIDCSSTSYEENYDWSANALQVALNSWEDVKPKKLESAGSDKNCNIGQSSESHPCTMTEEWQTPYKETVEKLRELEDAYQRGKKAHDAMLGYANTAYAVNTKVEQEKPLTEVIAAAKEAGKKGAKIIIPAAAPATPTNSTKNDDSAPTEHVDRGIATNETQVEVGID
notes: Expressed in E. coli T7 shuffle cells; also called ISG65 wt
Turning to B1, in assay [1], the “relative AP50 of human plasma, day 0” value is 6 fold. In addition, the kon (usually the second-order rate constant of association) in assay [2] stood at 1e+06 M⁻¹ s⁻¹. Further, binding in assay [3] was put at a Kd of 27.9 nM. Moreover, the koff (usually a measure of how fast the partners let go of each other) in assay [4] stood at 0.04 s⁻¹.

B2: His-ISG65 18-363 Y293A (receptor)
chain: B1 chain with Y297A
notes: also called ISG65 Y293A
For the molecule B2, in assay [5], the binding result is on record as “no binding (tested: ISG65 1.5-100 nM)”.
